Measured values taken from patent US20170342155A1 (Amgen, published 2017).

Key:
Assay in all cases: flow cytometry on transfected 293T cells, PE secondary antibody, geo mean
[1] = target: T1, human CCR7 variant L47V (20100122626) (human, UniProt P32248 25-378)
T1 sequence: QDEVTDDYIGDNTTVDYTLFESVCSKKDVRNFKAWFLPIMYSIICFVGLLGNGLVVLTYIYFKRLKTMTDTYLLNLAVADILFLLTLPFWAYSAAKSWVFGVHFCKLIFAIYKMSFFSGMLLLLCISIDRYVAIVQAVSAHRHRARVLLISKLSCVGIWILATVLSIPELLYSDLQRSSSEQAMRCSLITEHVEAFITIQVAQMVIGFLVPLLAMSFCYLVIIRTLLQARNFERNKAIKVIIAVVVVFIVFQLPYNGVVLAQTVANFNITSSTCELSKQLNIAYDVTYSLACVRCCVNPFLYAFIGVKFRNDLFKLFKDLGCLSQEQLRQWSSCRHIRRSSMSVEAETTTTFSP

[2] = target: T2, human CCR7 variant S204G (20100171269) (human, UniProt P32248 25-378)
T2 sequence: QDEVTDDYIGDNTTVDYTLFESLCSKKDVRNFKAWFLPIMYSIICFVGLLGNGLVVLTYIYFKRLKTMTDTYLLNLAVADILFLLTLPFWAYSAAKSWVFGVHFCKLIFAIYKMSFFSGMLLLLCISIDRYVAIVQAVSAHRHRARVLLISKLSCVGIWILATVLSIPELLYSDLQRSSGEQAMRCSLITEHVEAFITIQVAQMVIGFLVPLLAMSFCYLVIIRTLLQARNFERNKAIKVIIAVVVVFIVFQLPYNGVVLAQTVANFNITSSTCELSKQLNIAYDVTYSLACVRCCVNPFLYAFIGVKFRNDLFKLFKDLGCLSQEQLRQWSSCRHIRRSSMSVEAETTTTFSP

[3] = target: T3, murine CCR7 K201R/N202S/G204S/T207A/L208M construct 20110094673 (mouse, UniProt P47774 25-378)
T3 construct: Murine CCR7 with five human ECL2 residues; also called KNGTL; KNGTL construct
T3 chain: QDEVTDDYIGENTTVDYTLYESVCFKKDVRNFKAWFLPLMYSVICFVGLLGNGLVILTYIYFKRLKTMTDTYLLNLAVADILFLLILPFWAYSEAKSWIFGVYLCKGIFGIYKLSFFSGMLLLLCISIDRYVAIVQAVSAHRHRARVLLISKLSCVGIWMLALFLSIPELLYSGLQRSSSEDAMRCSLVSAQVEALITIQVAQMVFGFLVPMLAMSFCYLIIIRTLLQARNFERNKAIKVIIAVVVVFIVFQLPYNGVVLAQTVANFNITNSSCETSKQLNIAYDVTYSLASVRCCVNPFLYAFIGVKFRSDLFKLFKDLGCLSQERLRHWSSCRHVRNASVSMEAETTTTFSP

[4] = target: T4, human CCR7 variant L300T (20110018204) (human, UniProt P32248 25-378)
T4 sequence: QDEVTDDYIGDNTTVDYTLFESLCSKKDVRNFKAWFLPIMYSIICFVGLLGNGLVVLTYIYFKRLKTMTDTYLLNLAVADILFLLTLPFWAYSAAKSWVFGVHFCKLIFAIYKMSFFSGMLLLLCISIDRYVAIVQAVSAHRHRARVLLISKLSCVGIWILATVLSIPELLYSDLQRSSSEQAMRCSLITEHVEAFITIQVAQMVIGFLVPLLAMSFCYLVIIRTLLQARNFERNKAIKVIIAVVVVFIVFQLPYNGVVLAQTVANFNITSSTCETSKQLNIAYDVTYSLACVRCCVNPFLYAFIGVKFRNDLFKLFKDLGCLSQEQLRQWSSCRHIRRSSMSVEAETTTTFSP

[5] = target: T5, human CCR7 variant R201K (20100171268) (human, UniProt P32248 25-378)
T5 sequence: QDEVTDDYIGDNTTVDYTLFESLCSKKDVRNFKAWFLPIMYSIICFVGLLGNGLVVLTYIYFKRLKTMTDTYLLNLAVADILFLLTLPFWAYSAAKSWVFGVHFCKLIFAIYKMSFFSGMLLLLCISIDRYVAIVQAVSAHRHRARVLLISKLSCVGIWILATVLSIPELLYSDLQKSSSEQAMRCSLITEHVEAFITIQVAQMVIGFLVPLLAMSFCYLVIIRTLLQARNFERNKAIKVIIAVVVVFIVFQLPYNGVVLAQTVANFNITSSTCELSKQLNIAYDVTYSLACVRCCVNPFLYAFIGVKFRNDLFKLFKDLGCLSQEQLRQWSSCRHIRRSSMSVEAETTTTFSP

[6] = target: T6, human CCR7 variant H127Y (20100135009) (human, UniProt P32248 25-378)
T6 sequence: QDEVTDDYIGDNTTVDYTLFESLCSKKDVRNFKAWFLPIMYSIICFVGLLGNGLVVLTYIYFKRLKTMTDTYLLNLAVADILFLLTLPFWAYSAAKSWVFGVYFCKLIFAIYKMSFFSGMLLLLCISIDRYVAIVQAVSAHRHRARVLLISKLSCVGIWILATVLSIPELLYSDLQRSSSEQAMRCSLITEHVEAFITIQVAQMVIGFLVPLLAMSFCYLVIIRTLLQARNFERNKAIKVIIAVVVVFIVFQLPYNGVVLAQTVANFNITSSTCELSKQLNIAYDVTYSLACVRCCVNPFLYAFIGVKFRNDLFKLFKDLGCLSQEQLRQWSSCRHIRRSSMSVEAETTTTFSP

[7] = target: T7, human CCR7 variant D35E (20100122625) (human, UniProt P32248 25-378)
T7 construct: Human CCR7 with the murine residue at position 35; also called D35 variant
T7 sequence: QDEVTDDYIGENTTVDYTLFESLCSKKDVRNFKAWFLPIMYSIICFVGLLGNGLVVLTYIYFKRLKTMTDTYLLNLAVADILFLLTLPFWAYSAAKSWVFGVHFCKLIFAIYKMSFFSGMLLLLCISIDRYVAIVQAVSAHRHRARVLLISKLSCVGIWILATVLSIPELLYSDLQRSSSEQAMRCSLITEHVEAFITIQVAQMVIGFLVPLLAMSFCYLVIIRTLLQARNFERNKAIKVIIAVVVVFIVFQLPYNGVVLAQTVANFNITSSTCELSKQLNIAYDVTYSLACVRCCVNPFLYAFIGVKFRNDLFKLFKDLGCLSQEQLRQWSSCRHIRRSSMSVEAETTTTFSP

Measured: binding result

B1: antibody 6B4.1 (antibody, V domains shown)
VH: QVQLVESGGGVVQPGRSLRLSCAASGFTFSSYGMHWVRQAPGKGLEWVAVIWYDGSKKYYADSVKGRFTISRDNSKNTLYLQMNRLRAEDTAVYYCARDGGIAVFLQDNWFDPWGQGTLVTVSS
VL: SYELTQPPSVSVSPGQRARITCSGDKLGDKYASWYQQKPGQSPLLVIYQDSKRPSGIPERFSGSNSGNTATLTISGTQAMDEADYYCQAWGSSTVIFGGGTKLTVLG
notes: Human antibody from XenoMouse hybridoma; Light = 2 and heavy = 42 is inferred from the order of the listing (light chains first)
binds: all assays above

B2: antibody 6B5.1 (antibody, human IgG2, lambda, V domains shown)
VH: QVQLVESGGGVVQPGRSLRLSCAASGFTFRSYGMHWVRQAPGKGLEWVAVIWYDGSKKYYADSVKGRFTISRDNSKNTLYLQMNRLRAEDTAVYYCARDGGIAVFLEDNWFDPWGQGTLVTVSS
VL: SYELTQPPSVSVSPGQRASITCSGDKLGDKYASWYQQKPGQSPLLVIYQDGKRPSGIPERFSGSNSGNTATLTISGTQAMDEADYYCQAWGSSTVIFGGGTKLTVLG
notes: Human antibody from XenoMouse hybridoma; Light = 18 and heavy = 50 is inferred from the order of the listing
binds: all assays above
